Experimental data reported in the supplement of paper PMC9732359.
± gives the uncertainty stated by the source.

Test: protein stability index of a GFP-peptide fusion (yeast GPS) (PSI 1-4); higher = more stable; sorted into four equal gates, so the index is relative within each strain
Procedure, shortened: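 Mid-log yeast cultures in leucine-free medium, carrying a pooled plasmid library, were sorted into four equal gates by their GFP/Cherry fluorescence ratio. Each plasmid expressed Cherry along with GFP fused upstream of a tiled 17-residue yeast protein peptide. Plasmids recovered from each gate were PCR-amplified and Illumina-sequenced, with reads assigned to strains by barcodes. The protein stability index was obtained by summing each gate's read frequency weighted by its gate number.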

| Sequence | protein stability index (doa10∆) | protein stability index (pdr5∆) | protein stability index (san1∆) | protein stability index (ubr1∆) |
| --- | --- | --- | --- | --- |
| DFNQAKHEEIDTKNLYV [RPS10A] | 3.38 ± 0.16 | 2.81 ± 0.12 | 3.29 ± 0.078 | 3.07 ± 0.074 |
| FSFGTSQPNNTPSFSFG [YLR335W/NUP2] | 2.81 ± 0.048 | 2.73 ± 0.047 | 2.88 ± 0.053 | 2.59 ± 0.037 |
| NLDIAKDLIRTDEALFE [MED4] | 3.44 ± 0.22 | 3.29 ± 0.19 | 2.46 ± 0.28 | 3.31 ± 0.24 |
| TGESWVKLTYNSPSSAL [YDL088C/ASM4] | 2.31 ± 0.058 | 1.75 ± 0.055 | 2.08 ± 0.067 | 2.02 ± 0.04 |
| VNLENPIPIAVLDSYTP [FAS1] | 1.42 ± 0.046 | 1.7 ± 0.036 | 1.69 ± 0.071 | 1.42 ± 0.027 |
| LLRFNGVERLIPVGDNT [PRE4] | 1.58 ± 0.068 | 1.73 ± 0.07 | 1.53 ± 0.13 | 1.86 ± 0.093 |
| LDPTDDEGHVLKLENLH [SIN4] |  | 3.16 ± 0.23 | 3.12 ± 0.13 |  |
| DDLKKDHIAIDWEDEEK [DSN1] | 2.73 ± 0.083 | 3.06 ± 0.072 | 3.07 ± 0.065 | 2.82 ± 0.063 |
| ICSCVNRGVKLEIVYGY [RPP1] | 2.38 ± 0.1 | 2.63 ± 0.063 | 2.43 ± 0.08 | 2 ± 0.049 |
| GPPQSLYGLNLTLRKAK [FAS1] | 2.81 ± 0.064 | 2.15 ± 0.065 | 3.32 ± 0.06 | 2.42 ± 0.051 |
| LNRLPAASLGDMVMATV [RPL23A] | 1.6 ± 0.1 | 1.78 ± 0.072 | 2.52 ± 0.17 | 2.11 ± 0.057 |
| KTLKLARAPKYASKAVP [RPL25] | 2.29 ± 0.06 | 2.31 ± 0.056 | 2.53 ± 0.067 | 2.19 ± 0.035 |
| AKNSIIDSSNLPLQAQQ [SWI1] | 2.73 ± 0.069 | 2.94 ± 0.071 | 2.74 ± 0.099 | 2.78 ± 0.042 |
| HGMFSSASVRALIENWA [FAS1] | 1.48 ± 0.11 | 1.84 ± 0.12 | 1.48 ± 0.17 | 1.76 ± 0.064 |
| PKSGIDIFVYLTYDKDL [MTR3] | 1.9 ± 0.062 | 1.58 ± 0.052 | 1.78 ± 0.11 | 1.7 ± 0.053 |
| KRELKQLLEKAPIPIRE [BRR2] | 1.94 ± 0.05 | 2.22 ± 0.053 | 1.99 ± 0.13 | 1.91 ± 0.061 |
| ISTVIEVNREEAIGFIR [SMC3] | 2.93 ± 0.21 | 2.65 ± 0.11 | 2.86 ± 0.16 | 2.57 ± 0.088 |
| QVVTDYNILGNLGIPKI [SSN2] | 2.51 ± 0.069 | 2.96 ± 0.072 | 2.37 ± 0.1 | 2.27 ± 0.06 |
| TTQDQCKLTLDINVELF [RPB8] | 2.97 ± 0.054 | 2.96 ± 0.07 | 2.93 ± 0.037 | 3.3 ± 0.053 |
| KDLVIVSNLMGRNIGHP [RPB3] | 3.22 ± 0.051 | 3.1 ± 0.05 | 3.18 ± 0.039 | 2.88 ± 0.037 |
| AEASGEAADEADEADEE [RPS9A] | 3.35 ± 0.23 | 3.03 ± 0.28 | 3.01 ± 0.15 | 3.45 ± 0.12 |
| TEKQRKKQIAFPQRKYA [RPL35A] | 1.16 ± 0.062 | 1.44 ± 0.096 | 1.13 ± 0.21 | 1.15 ± 0.08 |
| AMDRAHRIGQKKQVHVY [ISW2] | 2.71 ± 0.095 | 2.75 ± 0.078 | 2.84 ± 0.085 | 2.66 ± 0.074 |
| DELVLNFENDNENNSNG [REC8] | 2.88 ± 0.19 | 2.62 ± 0.28 | 2.64 ± 0.15 | 2.79 ± 0.16 |
| WTELCQREFKEIMEERN [NNF1] | 2.98 ± 0.21 | 3.41 ± 0.16 | 3.13 ± 0.072 | 3.2 ± 0.074 |
| LQISDIPAAGNNRSVSM [SRB5] | 2.77 ± 0.075 | 2.35 ± 0.07 | 2.4 ± 0.083 | 2.8 ± 0.06 |

| Sequence | protein stability index (doa10∆) | protein stability index (pdr5∆) | protein stability index (san1∆) | protein stability index (ubr1∆) |
| --- | --- | --- | --- | --- |
| YVRTEETDGKHGKRRSQ [YMR129W/POM152] | 1.46 ± 0.041 | 1.85 ± 0.063 | 1.57 ± 0.11 | 2 ± 0.053 |
| TNNGNDDNETENPNFWR [GRR1] | 2.74 ± 0.066 | 3.16 ± 0.05 | 2.37 ± 0.053 | 2.75 ± 0.041 |
| DPHSASLINSHLKILAS [RPC82] | 2.15 ± 0.22 | 1.38 ± 0.12 | 1.38 ± 0.19 | 1.23 ± 0.059 |
| LTVYLEPGHAADQEQAK [RPO21] | 2.96 ± 0.14 | 2.68 ± 0.1 | 3.05 ± 0.081 | 3.13 ± 0.083 |
| PVTSIPSTNKKLSISNA [GAL11] | 2.29 ± 0.061 | 2.67 ± 0.056 | 2.53 ± 0.058 | 2.8 ± 0.058 |
| PRYHSKNSFQQALQMKA [SWP82] | 1.4 ± 0.033 | 1.82 ± 0.049 | 1.38 ± 0.062 | 1.45 ± 0.043 |
| ACGAFININEFALPAGS [CDC53] | 2.36 ± 0.096 | 2.53 ± 0.091 | 1.99 ± 0.12 | 1.87 ± 0.074 |
| SMNNDFQQQQQQQQQQQ [PGD1] | 2.43 ± 0.1 | 2.9 ± 0.16 | 2.54 ± 0.11 | 2.29 ± 0.14 |
| GVSLLIAGHDEFNGFSL [PRE8] | 1.99 ± 0.18 | 2.18 ± 0.1 | 1.97 ± 0.1 | 2.07 ± 0.093 |
| DIEDALVLNKSSIDRGF [RET1] | 2.37 ± 0.095 | 2.83 ± 0.14 | 2.24 ± 0.19 | 2.97 ± 0.22 |
| SAAATPSLNKTINGKVN [GAL11] | 2.9 ± 0.06 | 3.14 ± 0.041 | 2.81 ± 0.042 | 3.01 ± 0.046 |
| IQGFYWAVKEGPLAEEP [SNU114] | 1.58 ± 0.089 | 1.35 ± 0.086 | 1.27 ± 0.21 | 1.22 ± 0.04 |
| DPDNTSFSDENSDDFFM [ESC2] | 2.31 ± 0.13 | 2.39 ± 0.11 | 2.54 ± 0.09 | 1.5 ± 0.088 |
| NDWKLETERLISQSQLG [SIN4] | 3.42 ± 0.096 | 3.11 ± 0.14 | 3.3 ± 0.068 | 3.53 ± 0.19 |
| GAKNIEITVVKPDSDIV [PRE6] | 2.54 ± 0.047 | 2.46 ± 0.041 | 2.57 ± 0.052 | 2.67 ± 0.059 |
| KDSLWQSEHLEAVVDQD [FAS1] | 3.43 ± 0.24 | 3.36 ± 0.14 | 3.46 ± 0.088 | 3.41 ± 0.09 |
| ITMESVHEWEVSKPSLL [PRP8] | 3.29 ± 0.069 | 3.29 ± 0.069 | 3.29 ± 0.066 | 3.24 ± 0.056 |
| EIDHVEYYVMMDFANLW [SRB8] | 2.98 ± 0.067 | 2.69 ± 0.054 | 2.81 ± 0.056 | 2.92 ± 0.036 |
| TTKRLWSEITESMSYLP [MCD1] | 3.01 ± 0.12 | 2.91 ± 0.095 | 2.99 ± 0.11 | 2.73 ± 0.069 |
| TPSSDQNPLPTRFEVEL [SOH1] | 3.35 ± 0.088 | 3.1 ± 0.061 | 2.65 ± 0.075 | 3.19 ± 0.049 |
| SVIVSQFCAFDSSSNTY [SIN4] | 2.48 ± 0.084 | 2.26 ± 0.073 | 2.51 ± 0.12 | 2.19 ± 0.074 |
| NGFMHAGTTDNSFIKAN [RPN2] | 1.24 ± 0.055 | 1.33 ± 0.045 | 1.35 ± 0.082 | 1.26 ± 0.051 |
| QMAKDVTTFLNWCAEPE [CYT1] | 3.4 ± 0.068 | 3.25 ± 0.067 | 3.04 ± 0.098 | 3.46 ± 0.073 |
| EQYIQELDKREDMIDQV [SMC3] | 3.23 ± 0.065 | 3.03 ± 0.084 | 3.01 ± 0.072 | 3.29 ± 0.15 |
| NKPIKRMLSSILDINVS [SWP82] | 2.52 ± 0.046 | 2.6 ± 0.041 | 2.48 ± 0.053 | 2.31 ± 0.027 |
